In assay [1] the target is CD8 on CD8+ SupT1 cells (human) (UniProt P01732). The assay can be described thus: flow cytometry on CD8+ SupT1 cells. Background: A flow cytometer gives signals particle by particle.
Assay [2] has as its target immobilized recombinant CD8 protein (UniProt P01732). Description: solid-phase ELISA on immobilized recombinant CD8 protein. Background: An ELISA detects its analyte on a solid surface through an enzyme-linked reagent.
Assay [3] addresses CD8 on CD8+ SupT1 cells (human) (UniProt P01732). Description: flow cytometry on CD8+ SupT1 cells; ligand at 0.15 µM.
The target is the same in assay [4]. The assay can be described thus: flow cytometry on CD8+ SupT1 cells; ligand at 4 µM, room temperature.
Assay [5] has the same target. Description: flow cytometry on CD8+ SupT1 cells; ligand at 4 µM, 4° C.
Assay [6] shares this target. The assay can be described thus: flow cytometry on CD8+ SupT1 cells; ligand at 4 µM.
The target is the same in assay [7]. Description: flow cytometry on CD8+ SupT1 cells; ligand at 0.05 µM.
Assay [8] shares this target. The assay can be described thus: flow cytometry on CD8+ SupT1 cells; ligand at 0.4 µM.
Assay [9] shares this target. Description: flow cytometry on CD8+ SupT1 cells; ligand at 1.3 µM.
For assay [10] the target is unchanged. The assay can be described thus: flow cytometry on CD8+ SupT1 cells. The source holds these as a separate data set.

Broadly, the EC50 is the concentration giving half of the maximal effect.

Sequence of CD8 on CD8+ SupT1 cells (human) (P01732 22-235): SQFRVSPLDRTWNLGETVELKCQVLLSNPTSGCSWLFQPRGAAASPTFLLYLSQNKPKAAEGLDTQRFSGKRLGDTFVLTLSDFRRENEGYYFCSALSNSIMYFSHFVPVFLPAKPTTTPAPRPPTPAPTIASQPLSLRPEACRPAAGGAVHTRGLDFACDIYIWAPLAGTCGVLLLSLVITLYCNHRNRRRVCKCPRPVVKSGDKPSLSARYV

In the case of “Biotin-1kPEG-nfyrr (SEQ ID NO: 32) (peptide)”, the MFIR (Mean Fluorescence Intensity Ratio) (ratio relative to Biotin1k-PEG) in [1] was 1.2. Moreover, the concentration giving a half-maximal response (EC50) in assay [2] came to 0.047 µM. Turning to “Biotin-1kPEG-cy(snprk) (SEQ ID NO: 28) (peptide)”, the MFIR (Mean Fluorescence Intensity Ratio) (ratio relative to unstained) in assay [1] was found to be 1.1. With “Biotin-1kPEG-vlyrr (SEQ ID NO: 30) (peptide)”, the MFIR (Mean Fluorescence Intensity Ratio) (ratio relative to Biotin1k-PEG) in assay [1] was 2. Besides, in [2], the EC50 stood at 0.077 µM. Consider “Biotin-1kPEG-cy(krsah) (SEQ ID NO: 27) (peptide)”, for which the MFIR (Mean Fluorescence Intensity Ratio) (ratio relative to unstained) in assay [1] stood at 1.6. Turning to “Biotin-1kPEG-yrsny (SEQ ID NO: 34) (peptide)”, the MFIR (Mean Fluorescence Intensity Ratio) (ratio relative to Biotin1k-PEG) in [1] was determined as 1. Same read-out and setting: then “Biotin-1kPEG-aykfn (SEQ ID NO: 36) (peptide)”, with 1.1. For the substance “Biotin-1kPEG-cy(tfpkk) (SEQ ID NO: 21) (peptide)”, the MFIR (Mean Fluorescence Intensity Ratio) (ratio relative to unstained) was found to be 1 in assay [3]; 1.5 in assay [4]; 1.5 in assay [5]; 1.5 in assay [6]; 1 in [7]; 1.8 in assay [1]. Moreover, the MFIR (Mean Fluorescence Intensity Ratio) (ratio relative to unstained) in assay [8] and in [9] was 1.1 in each case. In the case of “Biotin anti-CD8a Ab (Clone RPA-T8) (antibody)”, the figures for the MFIR (Mean Fluorescence Intensity Ratio) (ratio relative to unstained) in [10] and in assay [1] were 86.6 and 73.9, respectively.

In the case of “Biotin-1kPEG-yrpfy (SEQ ID NO: 31) (peptide)”, the MFIR (Mean Fluorescence Intensity Ratio) (ratio relative to Biotin1k-PEG) in assay [1] was 1.1. Take “Biotin-1kPEG-rftaf (SEQ ID NO: 37) (peptide)”: the MFIR (Mean Fluorescence Intensity Ratio) (ratio relative to Biotin1k-PEG) in assay [1] came to 1.1. On to “Biotin-1kPEG-rpyay (SEQ ID NO: 35) (peptide)”, for which the MFIR (Mean Fluorescence Intensity Ratio) (ratio relative to Biotin1k-PEG) in [1] came out at 1. Turning to “Biotin-1kPEG-yfrsr (SEQ ID NO: 33) (peptide)”, the MFIR (Mean Fluorescence Intensity Ratio) (ratio relative to Biotin1k-PEG) in assay [1] was found to be 1.1.

(Values after US20200291391A1, “CROSS-LINKED EPITOPES AND METHODS OF USE THEREOF” (Indi Molecular, Inc., priority 2019, published 2020).)
